Measurements reported in article PMC8617373 (Cell Research, 2021).

Target: SARS-CoV-2 S-ECD-hFc (extracellular domain of the spike (S) protein, hFc-tagged) (SARS-CoV-2, UniProt P0DTC2 14-1213)
Assay: flow cytometry on cells

B1: ASGR1 expressed on HEK293E cells (receptor)
chain: MTKEYQDLQHLDNEESDHHQLRKGPPPPQPLLQRLCSGPRLLLLSLGLSLLLLVVVCVIGSQNSQLQEELRGLRETFSNFTASTEAQVKGLSTQGGNVGRKMKSLESQLEKQQKDLSEDHSSLLLHVKQFVSDLRSLSCQMAALQGNGSERTCCPVNWVEHERSCYWFSRSGKAWADADNYCRLEDAHLVVVTSWEEQKFVQHHIGPVNTWMGLHDQNGPWKWVDGTDYETGFKNWRPEQPDDWYGHGLGGGEDCAHFTDDGRWNDDVCQRPYRWVCETELDKASQEPPLL
Kd: 94.8 nM

B2: KREMEN1 expressed on HEK293E cells (receptor)
chain: ARPAPSPGLGPECFTANGADYRGTQNWTALQGGKPCLFWNETFQHPYNTLKYPNGEGGLGEHNYCRNPDGDVSPWCYVAEHEDGVYWKYCEIPACQMPGNLGCYKDHGNPPPLTGTSKTSNKLTIQTCISFCRSQRFKFAGMESGYACFCGNNPDYWKYGEAASTECNSVCFGDHTQPCGGDGRIILFDTLVGACGGNYSAMSSVVYSPDFPDTYATGRVCYWTIRVPGASHIHFSFPLFDIRDSADMVELLDGYTHRVLARFHGRSRPPLSFNVSLDFVILYFFSDRINQAQGFAVLYQAVKEELPQERPAVNQTVAEVITEQANLSVSAARSSKVLYVITTSPSHPPQTVPGSNSWAPPMGAGSHRVEGWTVYGLATLLILTVTAIVAKILLHVTFKSHRVPASGDLRDCHQPGTSGEIWSIFYKPSTSISIFKKKLKGQSQQDDRNPLVSD
Kd: 19.3 nM
